Numbering of substitutions follows the chain as printed.

The target in test [1] is T1, recombinant mouse LRP5-His chimera (mouse, UniProt Q91VN0 31-1383).
T1 construct: extracellular domain; also called ECD of mouse LRP5; not shown: His tag
T1 sequence (looked up): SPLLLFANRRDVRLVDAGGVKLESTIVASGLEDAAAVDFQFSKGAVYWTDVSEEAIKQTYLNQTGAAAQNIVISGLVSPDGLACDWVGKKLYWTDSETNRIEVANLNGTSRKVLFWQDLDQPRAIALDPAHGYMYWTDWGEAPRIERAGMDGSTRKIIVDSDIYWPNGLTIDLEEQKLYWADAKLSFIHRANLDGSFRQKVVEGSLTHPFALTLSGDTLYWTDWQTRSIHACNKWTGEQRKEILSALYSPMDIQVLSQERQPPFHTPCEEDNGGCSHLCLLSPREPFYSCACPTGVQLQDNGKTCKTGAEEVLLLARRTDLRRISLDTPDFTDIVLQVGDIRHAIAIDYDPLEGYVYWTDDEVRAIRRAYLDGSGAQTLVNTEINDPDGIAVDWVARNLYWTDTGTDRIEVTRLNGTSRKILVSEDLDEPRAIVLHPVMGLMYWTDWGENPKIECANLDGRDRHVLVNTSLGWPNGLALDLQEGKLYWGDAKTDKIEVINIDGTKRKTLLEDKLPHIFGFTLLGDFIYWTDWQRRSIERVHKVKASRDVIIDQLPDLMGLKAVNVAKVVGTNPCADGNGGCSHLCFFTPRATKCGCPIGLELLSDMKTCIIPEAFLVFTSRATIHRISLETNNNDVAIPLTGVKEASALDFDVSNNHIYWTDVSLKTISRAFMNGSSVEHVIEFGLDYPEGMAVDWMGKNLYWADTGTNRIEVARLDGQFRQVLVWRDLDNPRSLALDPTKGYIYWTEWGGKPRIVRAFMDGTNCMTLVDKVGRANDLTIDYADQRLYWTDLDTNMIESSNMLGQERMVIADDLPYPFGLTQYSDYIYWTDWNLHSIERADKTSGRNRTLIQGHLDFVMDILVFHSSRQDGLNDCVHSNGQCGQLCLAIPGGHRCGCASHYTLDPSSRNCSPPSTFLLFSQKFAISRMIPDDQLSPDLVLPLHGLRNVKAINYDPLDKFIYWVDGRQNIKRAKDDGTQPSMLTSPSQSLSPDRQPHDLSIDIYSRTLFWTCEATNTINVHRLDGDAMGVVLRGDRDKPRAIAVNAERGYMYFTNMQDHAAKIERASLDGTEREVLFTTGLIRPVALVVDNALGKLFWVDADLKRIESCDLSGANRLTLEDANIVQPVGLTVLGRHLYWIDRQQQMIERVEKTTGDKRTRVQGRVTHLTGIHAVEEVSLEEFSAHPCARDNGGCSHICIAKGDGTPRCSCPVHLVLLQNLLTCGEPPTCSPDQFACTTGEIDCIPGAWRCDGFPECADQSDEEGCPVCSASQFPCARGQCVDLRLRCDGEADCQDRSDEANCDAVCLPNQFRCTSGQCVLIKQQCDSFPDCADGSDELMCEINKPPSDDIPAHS
Briefly: single-point ELISA, coated antigen, purified Fab or IgG1, anti-kappa-HRP. On the procedure: FIGS. 1A and 1B show sixteen (16) anti-LRP antibodies. (A) The amino acid sequences of the complementarity determining regions (CDR) of the heavy (H) and the light (L) chains are presented. The antibodies were grouped into unique epitopes as determined by competitive ELISAs. (B) Single-point ELISAs were performed on 96-well Maxisorb immune plates coated with ECD's of mouse LRP5, mouse LRP6 and human LRP6 chimeras. The plates were incubated with the purified Fab or IgG1 at the concentrations indicated followed by incubation with horseradish peroxidase (HRP)-conjugated anti-kappa antibody. The wells were washed eight times followed by incubation with 3,3′,5,5′-tetramethylbenzidine/H₂O₂ peroxidase (TMB) substrate for 5-10 min. The reaction was stopped by adding 1M H₃PO₄ and the absorbance was measured spectrometrically at 450 nm in a microtiter plate reader. FIG. 1A discloses “SSVA” as SEQ ID NO: 34, and “SASSLYS” as SEQ ID NO: 35, as well as SEQ ID NOS 36-49, 51, 44, 2-4, 4, 5-7, 5, 4, 5, 8-10, 4, 52, 55, 11-16, 15, 15, 13, 17-20, 13, 53, 56, 21-23, 22, 24-33, 54, 57, respectively, in order of columns.
(§1) The full length IgG1s and the antibody fragments (Fabs) were purified and a single-point ELISA was done to determine the specificity of the antibodies. […] A multipoint competitive ELISA was used to determine the relative affinities of the antibodies to the recombinant antigen.

Test [2] addresses T2, recombinant human LRP6-Fc chimera (human, UniProt O75581 20-1370).
T2 construct: extracellular domain; also called ECD of human LRP6; not shown: Fc part of the chimera
T2 sequence (looked up): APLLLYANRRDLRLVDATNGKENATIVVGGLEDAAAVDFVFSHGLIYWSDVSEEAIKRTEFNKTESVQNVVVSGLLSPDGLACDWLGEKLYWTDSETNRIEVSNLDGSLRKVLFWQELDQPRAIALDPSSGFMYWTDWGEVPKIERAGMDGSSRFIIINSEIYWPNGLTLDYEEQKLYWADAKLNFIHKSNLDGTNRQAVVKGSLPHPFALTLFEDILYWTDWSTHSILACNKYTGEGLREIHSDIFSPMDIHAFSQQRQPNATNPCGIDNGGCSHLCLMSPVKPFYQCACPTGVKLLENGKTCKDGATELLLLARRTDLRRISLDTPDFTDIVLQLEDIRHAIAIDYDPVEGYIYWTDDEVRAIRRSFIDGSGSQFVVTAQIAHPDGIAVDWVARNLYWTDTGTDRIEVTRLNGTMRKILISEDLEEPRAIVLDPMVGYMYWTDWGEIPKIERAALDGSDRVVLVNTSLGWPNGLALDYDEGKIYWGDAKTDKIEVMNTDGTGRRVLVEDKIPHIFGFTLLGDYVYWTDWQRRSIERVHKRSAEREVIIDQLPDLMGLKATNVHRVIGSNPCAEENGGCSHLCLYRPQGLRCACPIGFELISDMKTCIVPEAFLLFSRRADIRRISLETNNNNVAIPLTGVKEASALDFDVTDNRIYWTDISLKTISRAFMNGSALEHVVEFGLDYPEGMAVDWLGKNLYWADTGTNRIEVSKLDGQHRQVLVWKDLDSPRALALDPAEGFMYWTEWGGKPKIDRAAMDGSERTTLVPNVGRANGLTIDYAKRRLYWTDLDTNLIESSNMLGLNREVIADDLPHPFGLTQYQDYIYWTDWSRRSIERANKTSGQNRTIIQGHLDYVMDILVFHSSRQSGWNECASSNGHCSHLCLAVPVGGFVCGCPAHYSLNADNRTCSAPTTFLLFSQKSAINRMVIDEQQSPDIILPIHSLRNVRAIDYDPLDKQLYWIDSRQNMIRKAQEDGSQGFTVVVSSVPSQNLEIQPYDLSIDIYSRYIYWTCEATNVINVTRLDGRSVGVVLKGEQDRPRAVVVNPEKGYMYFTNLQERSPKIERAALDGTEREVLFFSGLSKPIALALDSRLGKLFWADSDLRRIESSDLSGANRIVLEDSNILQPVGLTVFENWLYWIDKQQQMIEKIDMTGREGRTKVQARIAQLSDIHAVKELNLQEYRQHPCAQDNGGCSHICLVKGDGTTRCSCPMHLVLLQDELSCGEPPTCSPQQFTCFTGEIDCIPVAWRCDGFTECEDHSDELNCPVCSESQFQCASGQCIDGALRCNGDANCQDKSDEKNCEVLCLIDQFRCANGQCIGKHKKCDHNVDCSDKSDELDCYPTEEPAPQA
The test is described as follows: multipoint competitive ELISA, IgG1; varied competitor printed as recombinant human LRP6-Fc chimera, while paragraph 283 says 'the recombinant antigen'.
Text: as §1
Table 3 reports the IC50 of LRP5 antibodies as determined by competitive ELISA. The log of the recombinant human LRP6-Fc chimera concentration (x-axis) was plotted against the OD450 reading of the antibody (y-axis). The IC50 was determined by non-linear regression analysis.

B1: LRP5-A9 (antibody, V domains shown)
VH: EVQLVESGGGLVQPGGSLRLSCAASGFNISSYSIHWVRQAPGKGLEWVASSSYYGYTYYADSVKGRFTISADTSKNTAYLQMNSLRAEDTAVYYCARTVRGSKKPYFSGWAMDYWGQGTLVTVSS
VL: DIQMTQSPSSLSASVGDRVTITCRASQSVSSAVAWYQQKPGKAPKLLIYSASSLYSGVPSRFSGSRSGTDFTLTISSLQPEDFATYYCQQVHYSPYSLITFGQGTKVEIKR
notes: Fab-phage in the screen
As to B1, in test [1], the binding result is “binds”.

B2: LRP5-D9 (antibody, V domains shown)
VH: EVQLVESGGGLVQPGGSLRLSCAASGFNISYSYIHWVRQAPGKGLEWVASIYSSYGYTYYADSVKGRFTISADTSKNTAYLQMNSLRAEDTAVYYCARHYSYFFYAMDYWGQGTLVTVSS
VL: DIQMTQSPSSLSASVGDRVTITCRASQSVSSAVAWYQQKPGKAPKLLIYSASSLYSGVPSRFSGSRSGTDFTLTISSLQPEDFATYYCQQASYSPITFGQGTKVEIKR
notes: Fab-phage in the screen
Regarding B2, the binding result in test [1] is listed as “binds”. For the same molecule, the IC50 in test [2] worked out at 25.1 nM.

B3: LRP5-H9 (antibody, V domains shown)
VH: EVQLVESGGGLVQPGGSLRLSCAASGFNIYSYYIHWVRQAPGKGLEWVASIYSYYGYTYYADSVKGRFTISADTSKNTAYLQMNSLRAEDTAVYYCARSYPAMDYWGQGTLVTVSS
VL: B2 VL with A91S
notes: Fab-phage in the screen
Regarding B3, the binding result in test [1] is “binds”. In test [2], the IC50 amounted to 37.5 nM.

B4: LRP5-G9 (antibody, V domains shown)
VH: EVQLVESGGGLVQPGGSLRLSCAASGFNISYSYIHWVRQAPGKGLEWVASIYSSYGYTYYADSVKGRFTISADTSKNTAYLQMNSLRAEDTAVYYCARWGAYHSSGYGMDYWGQGTLVTVSS
VL: B2 VL with A91S, Y93S
notes: Fab-phage in the screen
As to B4, the IC50 in test [2] is 26.4 nM.

B5: LRP5-A7 (antibody, V domains shown)
VH: EVQLVESGGGLVQPGGSLRLSCAASGFNLSYSSMHWVRQAPGKGLEWVASIYPYYGYTYYADSVKGRFTISADTSKNTAYLQMNSLRAEDTAVYYCARHGAMDYWGQGTLVTVSS
VL: DIQMTQSPSSLSASVGDRVTITCRASQSVSSAVAWYQQKPGKAPKLLIYSASSLYSGVPSRFSGSRSGTDFTLTISSLQPEDFATYYCQQAWGWGLFTFGQGTKVEIKR
notes: Fab-phage in the screen; also called LRP5-47
As to B5, the binding result in test [1] is reported as “binds”. In addition, the IC50 in test [2] was 4.68 nM.

B6: LRP5-E5 (antibody, V domains shown)
VH: EVQLVESGGGLVQPGGSLRLSCAASGFNIYSYSIHWVRQAPGKGLEWVASIYPYSSYTSYADSVKGRFTISADTSKNTAYLQMNSLRAEDTAVYYCARYAVYFPGYYWGMDYWGQGTLVTVSS
VL: B5 VL with A91Y, W92H, G93Y, W94Y, G95Y
notes: Fab-phage in the screen
Consider B6, for which the binding result in test [1] is on record as “binds”.

B7: LRP5-C12 (antibody, V domains shown)
VH: EVQLVESGGGLVQPGGSLRLSCAASGFNFSSSSIHWVRQAPGKGLEWVASIYSSYGSTSYADSVKGRFTISADTSKNTAYLQMNSLRAEDTAVYYCARTVRGSKKPYFSGWAMDYWGQGTLVTVSS
VL: B5 VL with A91F, W92S, G93H, W94V, G95S, F97I
notes: Fab-phage in the screen
Consider B7, for which the binding result in test [1] is given as “binds”.

B8: LRP5-H3 (antibody, V domains shown)
VH: EVQLVESGGGLVQPGGSLRLSCAASGFNLYYYYIHWVRQAPGKGLEWVASISPYYGYTSYADSVKGRFTISADTSKNTAYLQMNSLRAEDTAVYYCARSGYGWYAMDYWGQGTLVTVSS
VL: DIQMTQSPSSLSASVGDRVTITCRASQSVSSAVAWYQQKPGKAPKLLIYSASSLYSGVPSRFSGSRSGTDFTLTISSLQPEDFATYYCQQYWFLITFGQGTKVEIKR
notes: Fab-phage in the screen
Turning to B8, in test [1], the binding result is listed as “binds”.

B9: LRP5-G11 (antibody, V domains shown)
VH: EVQLVESGGGLVQPGGSLRLSCAASGFNISYSYIHWVRQAPGKGLEWVASIYPSYGYTYYADSVKGRFTISADTSKNTAYLQMNSLRAEDTAVYYCARAAPYYGYYYSYAMDYWGQGTLVTVSS
VL: B8 VL with Y91G, W92V, F93S
notes: Fab-phage in the screen
Turning to B9, the IC50 in test [2] came to 25.1 nM.
